Reference: patent US20240011005A1 (HUIDAGENE THERAPEUTICS, published 2024)

Tests used:
[1] = test system: T1, RhCas12f1 (ME-A.1) (Ruminiclostridium herbifermentans); assay: cell_activity
T1 sequence: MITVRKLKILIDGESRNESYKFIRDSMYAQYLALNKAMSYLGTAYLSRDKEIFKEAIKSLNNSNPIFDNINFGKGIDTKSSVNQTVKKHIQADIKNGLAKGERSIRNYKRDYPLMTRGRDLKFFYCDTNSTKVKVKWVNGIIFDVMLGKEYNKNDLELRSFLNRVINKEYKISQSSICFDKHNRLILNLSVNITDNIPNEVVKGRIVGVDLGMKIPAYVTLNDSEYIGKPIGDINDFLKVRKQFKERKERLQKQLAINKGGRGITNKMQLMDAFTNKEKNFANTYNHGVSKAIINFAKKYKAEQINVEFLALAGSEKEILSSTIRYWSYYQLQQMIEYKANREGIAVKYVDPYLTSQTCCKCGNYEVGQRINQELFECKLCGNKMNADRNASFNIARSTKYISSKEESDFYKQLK

[2] = test system: T2, OsCas12f1 (ME-B.3) (Oscillibacter sp.); assay: cell_activity
T2 sequence: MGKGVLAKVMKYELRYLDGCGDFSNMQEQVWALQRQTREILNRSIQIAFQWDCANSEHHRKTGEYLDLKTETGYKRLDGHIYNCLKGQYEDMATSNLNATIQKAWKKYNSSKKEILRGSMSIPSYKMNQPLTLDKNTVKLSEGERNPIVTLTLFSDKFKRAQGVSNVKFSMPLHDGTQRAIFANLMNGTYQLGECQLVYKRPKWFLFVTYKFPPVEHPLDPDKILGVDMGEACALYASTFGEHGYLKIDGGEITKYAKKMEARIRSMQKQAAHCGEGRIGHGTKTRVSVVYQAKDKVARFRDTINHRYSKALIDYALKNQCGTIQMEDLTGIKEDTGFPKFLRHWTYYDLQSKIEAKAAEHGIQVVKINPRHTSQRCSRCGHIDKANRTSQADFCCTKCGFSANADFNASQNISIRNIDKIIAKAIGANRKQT

[3] = test system: T3, RhCas12f1-A273R A273R (Ruminiclostridium herbifermentans); assay: cell_activity; details: PAM CCCA
T3 sequence: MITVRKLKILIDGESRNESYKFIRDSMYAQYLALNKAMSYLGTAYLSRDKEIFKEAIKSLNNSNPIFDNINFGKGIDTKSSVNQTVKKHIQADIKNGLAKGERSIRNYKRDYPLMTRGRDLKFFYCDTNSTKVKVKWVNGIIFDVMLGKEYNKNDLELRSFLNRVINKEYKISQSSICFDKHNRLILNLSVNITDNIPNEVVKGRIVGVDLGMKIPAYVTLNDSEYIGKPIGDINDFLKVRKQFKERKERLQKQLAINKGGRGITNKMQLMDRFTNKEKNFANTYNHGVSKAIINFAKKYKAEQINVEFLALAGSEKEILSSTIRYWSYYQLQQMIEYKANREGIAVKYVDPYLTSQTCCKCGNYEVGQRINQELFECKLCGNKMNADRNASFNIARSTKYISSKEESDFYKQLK

[4] = test system: T4, RhCas12f1-A56R A56R (Ruminiclostridium herbifermentans); assay: cell_activity; details: PAM CCCA
T4 sequence: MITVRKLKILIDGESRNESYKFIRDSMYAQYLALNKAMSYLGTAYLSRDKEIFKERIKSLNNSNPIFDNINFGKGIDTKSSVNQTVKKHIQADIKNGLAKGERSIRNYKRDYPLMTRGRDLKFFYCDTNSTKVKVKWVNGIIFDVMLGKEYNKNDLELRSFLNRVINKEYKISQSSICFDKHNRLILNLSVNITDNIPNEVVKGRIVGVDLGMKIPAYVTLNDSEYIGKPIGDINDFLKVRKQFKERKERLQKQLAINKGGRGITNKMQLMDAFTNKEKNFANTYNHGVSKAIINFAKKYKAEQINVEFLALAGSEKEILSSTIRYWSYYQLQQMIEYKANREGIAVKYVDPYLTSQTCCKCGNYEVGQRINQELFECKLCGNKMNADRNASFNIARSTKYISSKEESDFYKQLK

[5] = test system: T5, RhCas12f1-I264R I264R (Ruminiclostridium herbifermentans); assay: cell_activity; details: PAM CCCA
T5 sequence: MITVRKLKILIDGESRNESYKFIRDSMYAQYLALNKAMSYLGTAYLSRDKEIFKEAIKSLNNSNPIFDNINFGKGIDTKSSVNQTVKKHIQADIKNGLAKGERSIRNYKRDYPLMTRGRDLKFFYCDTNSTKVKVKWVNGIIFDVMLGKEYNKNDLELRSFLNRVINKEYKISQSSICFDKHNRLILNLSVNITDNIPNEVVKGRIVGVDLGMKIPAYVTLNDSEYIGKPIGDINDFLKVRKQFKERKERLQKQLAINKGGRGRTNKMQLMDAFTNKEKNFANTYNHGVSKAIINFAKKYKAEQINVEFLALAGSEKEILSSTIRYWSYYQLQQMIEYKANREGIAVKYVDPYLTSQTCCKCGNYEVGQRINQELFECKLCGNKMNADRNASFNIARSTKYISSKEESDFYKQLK

[6] = test system: T6, RhCas12f1-L270R (enRhCas12f1) (Ruminiclostridium herbifermentans); assay: cell_activity; details: PAM CCCA
T6 sequence: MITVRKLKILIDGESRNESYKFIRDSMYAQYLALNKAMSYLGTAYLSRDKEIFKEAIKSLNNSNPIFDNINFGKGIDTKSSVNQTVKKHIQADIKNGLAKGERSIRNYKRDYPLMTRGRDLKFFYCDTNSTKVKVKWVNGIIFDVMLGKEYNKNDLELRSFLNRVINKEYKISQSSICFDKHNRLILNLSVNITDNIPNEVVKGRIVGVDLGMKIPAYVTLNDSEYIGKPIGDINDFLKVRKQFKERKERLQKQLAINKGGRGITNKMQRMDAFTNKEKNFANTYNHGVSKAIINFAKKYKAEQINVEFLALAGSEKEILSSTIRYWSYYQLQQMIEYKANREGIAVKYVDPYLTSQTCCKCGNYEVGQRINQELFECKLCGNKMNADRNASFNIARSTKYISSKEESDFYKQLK

[7] = test system: T7, RhCas12f1-S130R S130R (Ruminiclostridium herbifermentans); assay: cell_activity; details: PAM CCCA
T7 sequence: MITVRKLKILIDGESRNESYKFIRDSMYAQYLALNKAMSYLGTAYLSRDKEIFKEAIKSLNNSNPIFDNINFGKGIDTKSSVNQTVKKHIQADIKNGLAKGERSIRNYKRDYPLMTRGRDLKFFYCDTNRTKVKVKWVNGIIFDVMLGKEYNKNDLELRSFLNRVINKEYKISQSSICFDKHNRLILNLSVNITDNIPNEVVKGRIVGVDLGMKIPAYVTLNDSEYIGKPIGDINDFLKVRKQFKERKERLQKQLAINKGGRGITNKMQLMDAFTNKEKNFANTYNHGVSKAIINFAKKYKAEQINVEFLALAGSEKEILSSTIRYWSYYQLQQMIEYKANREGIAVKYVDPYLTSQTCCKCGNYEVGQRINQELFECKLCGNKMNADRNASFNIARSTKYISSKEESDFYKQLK

[8] = test system: T8, RhCas12f1-T131R T131R (Ruminiclostridium herbifermentans); assay: cell_activity; details: PAM CCCA
T8 sequence: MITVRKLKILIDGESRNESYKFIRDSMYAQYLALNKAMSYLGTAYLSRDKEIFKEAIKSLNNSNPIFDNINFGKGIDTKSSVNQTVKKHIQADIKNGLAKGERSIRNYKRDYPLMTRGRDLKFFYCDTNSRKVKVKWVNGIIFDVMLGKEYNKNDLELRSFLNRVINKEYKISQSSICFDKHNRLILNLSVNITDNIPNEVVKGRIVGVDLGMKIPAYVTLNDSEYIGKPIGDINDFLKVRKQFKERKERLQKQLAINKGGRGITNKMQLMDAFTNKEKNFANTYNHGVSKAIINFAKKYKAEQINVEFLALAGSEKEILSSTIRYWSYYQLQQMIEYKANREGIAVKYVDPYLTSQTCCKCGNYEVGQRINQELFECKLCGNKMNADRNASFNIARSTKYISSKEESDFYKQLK

[9] = test system: T9, RhCas12f1-Y125R Y125R (Ruminiclostridium herbifermentans); assay: cell_activity; details: PAM CCCA
T9 sequence: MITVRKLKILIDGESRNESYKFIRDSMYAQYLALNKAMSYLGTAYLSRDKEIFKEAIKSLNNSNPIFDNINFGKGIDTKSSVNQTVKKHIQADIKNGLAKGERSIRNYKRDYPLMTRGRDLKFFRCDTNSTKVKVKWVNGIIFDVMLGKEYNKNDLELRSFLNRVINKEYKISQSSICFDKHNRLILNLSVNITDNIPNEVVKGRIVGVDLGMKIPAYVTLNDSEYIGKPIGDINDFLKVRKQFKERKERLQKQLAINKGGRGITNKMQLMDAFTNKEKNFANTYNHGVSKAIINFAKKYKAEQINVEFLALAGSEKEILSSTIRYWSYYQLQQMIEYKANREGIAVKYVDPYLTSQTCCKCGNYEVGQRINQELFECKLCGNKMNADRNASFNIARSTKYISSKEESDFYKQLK

[10] = molecular target: the molecule itself; assay: size-exclusion chromatography (Superdex 200 Increase 10/300) of Cas12f1 RNP assembled with sgRNA; self-association (homodimer)

Molecule: ACGGUUGAUUUAGCAACCGAAGUCUGAGGGCAUGUAGAAAAAAGUAUAGGUAUAUACCAACAUACUUGCAUUGCCACUCGGAAAGGGUUAACCUUGGUCAUUGUGUUACCGACCAAGCAUUCCAGAAAUGGAAUGUAAAUGGGUCUUCGAGAAGACCUUUUUAUUUUUUU / CCCACCATTACAGTAGGAGCATAC / GTATGCTCCTACTGTAATGGTGGG
- activity ([1]; non-targeting spacer): 0.62 % GFP+

Molecule: AGGGCCGACUUCCCGGCCCAAAAUCGAGACAGUAGCCGUAAAACUUUGAGUUUCAGAGUGGGCGACACACUCGAAAAGGUUAAGAUAUGCACAUAGUAAUCCGUGCAUGAGCCGCGAAAGCGGCUUGAAGGCCAUUACAGUAGGAGCAUACUUUUAUUUUUUU / TTTCCCATTACAGTAGGAGCATACGGG / CCCGTATGCTCCTACTGTAATGGGAAA
- binding signal (fold vs WT scaffold) ([2]; PAM TTTC): 1.56

Molecule: AGGGACGACUUCCCGUCCCAAAAUCGAGACAGUAGCCGUAAAACUUUGAGUUUCAGAGUGGGCGACACACUCGAAAAGGUUAAGAUAUGCACAUAGUAAUCCGUGCAUGAGCCGCGAAAGCGGCUUGAAGGGGGUCUUCGAGAAGACCUUUUUAUUUUUUU / TTTCCCATTACAGTAGGAGCATACGGG / CCCGTATGCTCCTACTGTAATGGGAAA
- activity ([2]; non-targeting spacer): 0.55 % GFP+

Molecule: ACGGUUGAUUUAGCAACCGAAGUCUGAGGGCAUGUAGAAAAAAGUAUAGGUAUAUACCAACAUACUUGCAUUGCCACUCGGAAAGGGUUAACCUUGGUCAUUGUGUUACCGACCAAGCAUUCCAGAAAUGGAAUGUAAAUCCAUUACAGUAGGAGCAUACUUUUAUUUUUUU / CCCACCATTACAGTAGGAGCATAC / GTATGCTCCTACTGTAATGGTGGG
- activity ([1]; PAM CCCA, HEK293T): 61.5 % GFP+
- activity [3]: 75.3 % GFP+
- activity [4]: 73 % GFP+
- activity [5]: 75 % GFP+
- activity [6]: 73.8 % GFP+
- activity [7]: 76.1 % GFP+
- activity [8]: 77.2 % GFP+
- activity [9]: 73.3 % GFP+

B1: OsCas12f1 (ME-B.3) (enzyme)
chain: MGKGVLAKVMKYELRYLDGCGDFSNMQEQVWALQRQTREILNRSIQIAFQWDCANSEHHRKTGEYLDLKTETGYKRLDGHIYNCLKGQYEDMATSNLNATIQKAWKKYNSSKKEILRGSMSIPSYKMNQPLTLDKNTVKLSEGERNPIVTLTLFSDKFKRAQGVSNVKFSMPLHDGTQRAIFANLMNGTYQLGECQLVYKRPKWFLFVTYKFPPVEHPLDPDKILGVDMGEACALYASTFGEHGYLKIDGGEITKYAKKMEARIRSMQKQAAHCGEGRIGHGTKTRVSVVYQAKDKVARFRDTINHRYSKALIDYALKNQCGTIQMEDLTGIKEDTGFPKFLRHWTYYDLQSKIEAKAAEHGIQVVKINPRHTSQRCSRCGHIDKANRTSQADFCCTKCGFSANADFNASQNISIRNIDKIIAKAIGANRKQT
notes: Purified recombinant protein used in size-exclusion chromatography; Entered as the single polypeptide; also called WTOsCas12f1; Cas12f1 from Oscillibacter sp; not shown: C-terminal 6xHis tag
- binding result [10]: binds

B2: RhCas12f1 (ME-A.1) (enzyme)
chain: MITVRKLKILIDGESRNESYKFIRDSMYAQYLALNKAMSYLGTAYLSRDKEIFKEAIKSLNNSNPIFDNINFGKGIDTKSSVNQTVKKHIQADIKNGLAKGERSIRNYKRDYPLMTRGRDLKFFYCDTNSTKVKVKWVNGIIFDVMLGKEYNKNDLELRSFLNRVINKEYKISQSSICFDKHNRLILNLSVNITDNIPNEVVKGRIVGVDLGMKIPAYVTLNDSEYIGKPIGDINDFLKVRKQFKERKERLQKQLAINKGGRGITNKMQLMDAFTNKEKNFANTYNHGVSKAIINFAKKYKAEQINVEFLALAGSEKEILSSTIRYWSYYQLQQMIEYKANREGIAVKYVDPYLTSQTCCKCGNYEVGQRINQELFECKLCGNKMNADRNASFNIARSTKYISSKEESDFYKQLK
notes: Purified recombinant protein used in size-exclusion chromatography; Entered as the single polypeptide; also called WTRhCas12f1; Cas12f1 from Ruminiclostridium herbifermentans; not shown: C-terminal 6xHis tag
- binding result [10]: binds
